From patent US20220259593A1, “CONTROL OF MAMMALIAN GENE DOSAGE USING CRISPR” (The Regents of the University of California, priority 2019, published 2022) come the findings set out here.

Substitutions are numbered along the chain they refer to.

The test system of this series is K562 CRISPRi cells. As to the kind of experiment: Constant region variant library pooled growth screen, K562. In kind it is cell-based, human. The conditions noted are these: sgRNA constant region variants. The method, boiled down: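 Library of sgRNA constant-region variants, each paired with 36 targeting sequences (essential-gene and non-targeting), transduced in duplicate into K562 CRISPRi cells, puromycin-selected and grown 4–8 days at >2000× coverage. Activity per variant is its growth phenotype normalised to the same targeting sequence with unmodified constant region.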

Where [1] appears, read: activity relative to the unmodified constant region cr995.
Setting [2] is: activity relative to the original, un-modified constant region cr995.

B1: cr417 (nucleic acid)
guide: GTTTAAGAGCTAAGCTGGAAACAGCATAGCAATTTTAAATAAGGCTAGTCCGTTATCAACTTGAAGAAGTGGCACCGAGTCGGTGCT
modifications: listed as DNA, chemistry not fully specified
Consider B1, for which, under setting [1], the Mean relative activity amounted to 0.2821.

B2: cr308 (nucleic acid)
guide: B1 guide with T33G, G43A, C51T, A59T, G66A, T70A, A74T, T84A
modifications: listed as DNA, chemistry not fully specified
Regarding B2, under setting [1], the Mean relative activity is 0.2249.

B3: cr965 (nucleic acid)
guide: B1 guide with T33G, C45G, G48C, G66A, A74C, C75T, G83A, T84G
modifications: listed as DNA, chemistry not fully specified
As for B3, the Mean relative activity under setting [1] worked out at 0.2572.

B4: cr262 (nucleic acid)
guide: B1 guide with T33G, T34C, A59T, G66A, T70A
modifications: listed as DNA, chemistry not fully specified
Regarding B4, the Mean relative activity under setting [1] came out at 0.2329.

B5: cr720 (nucleic acid)
guide: B1 guide with T33G, T34C, C45T, G48A, G66A
modifications: listed as DNA, chemistry not fully specified
As to B5, the Mean relative activity under setting [1] is recorded as 0.2481.

B6: cr077 (nucleic acid)
guide: B1 guide with T2A, A8T, T33G, G66A
modifications: listed as DNA, chemistry not fully specified
The molecule B6 gave a Mean relative activity under setting [1] of 0.2538.

B7: cr277 (nucleic acid)
guide: B1 guide with T33G, G43A, C51T, T62A, G66A, A67T, C76A, G82T
modifications: listed as DNA, chemistry not fully specified
Turning to B7, under setting [1], the Mean relative activity came out at 0.2732.

B8: cr992 (nucleic acid)
guide: B1 guide with A28T, T33G, G52A, G66A
modifications: listed as DNA, chemistry not fully specified
In the case of B8, the Mean relative activity under setting [1] is 0.2785.

B9: cr853 (nucleic acid)
guide: B1 guide with T46G, G66A
modifications: listed as DNA, chemistry not fully specified
As to B9, the Mean relative activity under setting [1] is recorded as 0.2121.

B10: cr217 (nucleic acid)
guide: B1 guide with A65C, G66A
modifications: listed as DNA, chemistry not fully specified
In turn, B10 had a Mean relative activity under setting [1] of 0.2802.

B11: cr972 (nucleic acid)
guide: B1 guide with T33G, G44T, C45G, G48C, C50A, T61C, G66A, A68G
modifications: listed as DNA, chemistry not fully specified
For the molecule B11, the Mean relative activity under setting [1] amounted to 0.2767.

B12: cr046 (nucleic acid)
guide: B1 guide with T2G, G7C, T33G, G66A
modifications: listed as DNA, chemistry not fully specified
B12: the Mean relative activity under setting [1] was 0.2592.

B13: cr276 (nucleic acid)
guide: B1 guide with T33G, C45A, G48T, A59G, G66A, T70C, G77C, C81G
modifications: listed as DNA, chemistry not fully specified
As for B13, the Mean relative activity under setting [1] amounted to 0.2143.

B14: cr374 (nucleic acid)
guide: B1 guide with T33G, C45A, G66A
modifications: listed as DNA, chemistry not fully specified
For the molecule B14, the Mean relative activity under setting [1] is listed as 0.2686.

B15: cr180 (nucleic acid)
guide: B1 guide with T33G, A41C, G66A, T80C
modifications: listed as DNA, chemistry not fully specified
B15 yielded a Mean relative activity under setting [1] of 0.208.

B16: cr403 (nucleic acid)
guide: B1 guide with T33G, T34C, G66A, C76A, G82T
modifications: listed as DNA, chemistry not fully specified
As for B16, the Mean relative activity under setting [1] is recorded as 0.2381.

B17: cr907 (nucleic acid)
guide: B1 guide with T33G, G52A, A64T, G66A, G79T
modifications: listed as DNA, chemistry not fully specified
B17 gave a Mean relative activity under setting [1] of 0.2821.

B18: cr832 (nucleic acid)
guide: B1 guide with T33G, A59G, G66A, T70C, C73T, A74G, T84C, G85A
modifications: listed as DNA, chemistry not fully specified
Under setting [2], B18 yielded a Mean relative activity of 1.039.

B19: cr792 (nucleic acid)
guide: B1 guide with T33G, T34C, G66A, G72C, C86G
modifications: listed as DNA, chemistry not fully specified
For B19, under setting [1], the Mean relative activity is given as 0.242.

B20: cr076 (nucleic acid)
guide: B1 guide with G1A, T2A, T33G, G66A
modifications: listed as DNA, chemistry not fully specified
B20: under setting [1], the Mean relative activity is listed as 0.2741.

B21: cr198 (nucleic acid)
guide: B1 guide with G66A, G79A
modifications: listed as DNA, chemistry not fully specified
Regarding B21, the Mean relative activity under setting [1] was determined as 0.236.

B22: cr532 (nucleic acid)
guide: B1 guide with T33G, T61G, G66A, A68C, G72A, A74T, T84A, C86T
modifications: listed as DNA, chemistry not fully specified
Molecule B22 yielded a Mean relative activity under setting [2] of 1.093.

B23: cr246 (nucleic acid)
guide: B1 guide with T33G, T40A, A47G, G66A
modifications: listed as DNA, chemistry not fully specified
B23 came in with a Mean relative activity under setting [1] of 0.2779.

B24: cr870 (nucleic acid)
guide: B1 guide with T27A, T33G, G66A
modifications: listed as DNA, chemistry not fully specified
B24 returned a Mean relative activity under setting [2] of 1.04.

B25: cr110 (nucleic acid)
guide: B1 guide with T33G, C45A, G48T, G66A, C75T, C76T, G82A, G83A
modifications: listed as DNA, chemistry not fully specified
Take B25: under setting [1], the Mean relative activity is on record as 0.2547.

B26: cr073 (nucleic acid)
guide: B1 guide with A5T, A8C, T33G, G66A
modifications: listed as DNA, chemistry not fully specified
In turn, B26 gave a Mean relative activity under setting [1] of 0.265.

B27: cr011 (nucleic acid)
guide: B1 guide with T4C, T33G, G66A
modifications: listed as DNA, chemistry not fully specified
The molecule B27 returned a Mean relative activity under setting [1] of 0.2088.

B28: cr207 (nucleic acid)
guide: B1 guide with T33G, G66A, C81G
modifications: listed as DNA, chemistry not fully specified
As to B28, the Mean relative activity under setting [1] came to 0.2154.

B29: cr662 (nucleic acid)
guide: B1 guide with T33G, T35A, G66A
modifications: listed as DNA, chemistry not fully specified
In the case of B29, the Mean relative activity under setting [1] was 0.2491.

B30: cr025 (nucleic acid)
guide: B1 guide with G1C, G7A, T33G, G66A
modifications: listed as DNA, chemistry not fully specified
As for B30, under setting [1], the Mean relative activity is reported as 0.2396.

B31: cr194 (nucleic acid)
guide: B1 guide with T33G, C50A, G66A
modifications: listed as DNA, chemistry not fully specified
The molecule B31 showed a Mean relative activity under setting [1] of 0.2113.

B32: cr379 (nucleic acid)
guide: B1 guide with A26C, T33G, G66A
modifications: listed as DNA, chemistry not fully specified
For the molecule B32, the Mean relative activity under setting [2] is reported as 1.041.

B33: cr480 (nucleic acid)
guide: B1 guide with T33G, C60A, G66A, G69T, G72A, G77T, C81A, C86T
modifications: listed as DNA, chemistry not fully specified
Regarding B33, the Mean relative activity under setting [1] is listed as 0.2543.

B34: cr158 (nucleic acid)
guide: B1 guide with T33G, G43A, C45T, G48A, C51T, T62C, G66A, A67G
modifications: listed as DNA, chemistry not fully specified
For B34, under setting [1], the Mean relative activity was 0.2403.

B35: cr220 (nucleic acid)
guide: B1 guide with T33G, A41C, G52A, T54A, G66A
modifications: listed as DNA, chemistry not fully specified
B35: under setting [1], the Mean relative activity is 0.2229.

B36: cr854 (nucleic acid)
guide: B1 guide with T33G, G66A, C75G, C76G, G82C, G83C
modifications: listed as DNA, chemistry not fully specified
Consider B36, for which the Mean relative activity under setting [1] worked out at 0.2099.

B37: cr487 (nucleic acid)
guide: B1 guide with A32C, T33G, G66A
modifications: listed as DNA, chemistry not fully specified
On to B37, for which, under setting [2], the Mean relative activity amounted to 1.039.

B38: cr696 (nucleic acid)
guide: B1 guide with A31G, T33G, A47C, A58C, G66A
modifications: listed as DNA, chemistry not fully specified
B38 registered a Mean relative activity under setting [1] of 0.2553.

B39: cr654 (nucleic acid)
guide: B1 guide with T33G, T34A, A65T, G66A
modifications: listed as DNA, chemistry not fully specified
Turning to B39, the Mean relative activity under setting [1] turned out to be 0.2692.
